The values that follow come from article doi:10.64898/2025.12.01.691715.

In assay [1] the target is Myosin11 (smooth muscle myosin heavy chain, myosin II isoform) (mouse (endogenous in retina)) (UniProt O08638).
Assay [2] shares this target. In words: FRET or BRET. (In general: In BRET a luciferase serves as donor, and the signal depends on an acceptor being close.)

Chain of UniProt O08638 (O08638 whole entry, canonical isoform): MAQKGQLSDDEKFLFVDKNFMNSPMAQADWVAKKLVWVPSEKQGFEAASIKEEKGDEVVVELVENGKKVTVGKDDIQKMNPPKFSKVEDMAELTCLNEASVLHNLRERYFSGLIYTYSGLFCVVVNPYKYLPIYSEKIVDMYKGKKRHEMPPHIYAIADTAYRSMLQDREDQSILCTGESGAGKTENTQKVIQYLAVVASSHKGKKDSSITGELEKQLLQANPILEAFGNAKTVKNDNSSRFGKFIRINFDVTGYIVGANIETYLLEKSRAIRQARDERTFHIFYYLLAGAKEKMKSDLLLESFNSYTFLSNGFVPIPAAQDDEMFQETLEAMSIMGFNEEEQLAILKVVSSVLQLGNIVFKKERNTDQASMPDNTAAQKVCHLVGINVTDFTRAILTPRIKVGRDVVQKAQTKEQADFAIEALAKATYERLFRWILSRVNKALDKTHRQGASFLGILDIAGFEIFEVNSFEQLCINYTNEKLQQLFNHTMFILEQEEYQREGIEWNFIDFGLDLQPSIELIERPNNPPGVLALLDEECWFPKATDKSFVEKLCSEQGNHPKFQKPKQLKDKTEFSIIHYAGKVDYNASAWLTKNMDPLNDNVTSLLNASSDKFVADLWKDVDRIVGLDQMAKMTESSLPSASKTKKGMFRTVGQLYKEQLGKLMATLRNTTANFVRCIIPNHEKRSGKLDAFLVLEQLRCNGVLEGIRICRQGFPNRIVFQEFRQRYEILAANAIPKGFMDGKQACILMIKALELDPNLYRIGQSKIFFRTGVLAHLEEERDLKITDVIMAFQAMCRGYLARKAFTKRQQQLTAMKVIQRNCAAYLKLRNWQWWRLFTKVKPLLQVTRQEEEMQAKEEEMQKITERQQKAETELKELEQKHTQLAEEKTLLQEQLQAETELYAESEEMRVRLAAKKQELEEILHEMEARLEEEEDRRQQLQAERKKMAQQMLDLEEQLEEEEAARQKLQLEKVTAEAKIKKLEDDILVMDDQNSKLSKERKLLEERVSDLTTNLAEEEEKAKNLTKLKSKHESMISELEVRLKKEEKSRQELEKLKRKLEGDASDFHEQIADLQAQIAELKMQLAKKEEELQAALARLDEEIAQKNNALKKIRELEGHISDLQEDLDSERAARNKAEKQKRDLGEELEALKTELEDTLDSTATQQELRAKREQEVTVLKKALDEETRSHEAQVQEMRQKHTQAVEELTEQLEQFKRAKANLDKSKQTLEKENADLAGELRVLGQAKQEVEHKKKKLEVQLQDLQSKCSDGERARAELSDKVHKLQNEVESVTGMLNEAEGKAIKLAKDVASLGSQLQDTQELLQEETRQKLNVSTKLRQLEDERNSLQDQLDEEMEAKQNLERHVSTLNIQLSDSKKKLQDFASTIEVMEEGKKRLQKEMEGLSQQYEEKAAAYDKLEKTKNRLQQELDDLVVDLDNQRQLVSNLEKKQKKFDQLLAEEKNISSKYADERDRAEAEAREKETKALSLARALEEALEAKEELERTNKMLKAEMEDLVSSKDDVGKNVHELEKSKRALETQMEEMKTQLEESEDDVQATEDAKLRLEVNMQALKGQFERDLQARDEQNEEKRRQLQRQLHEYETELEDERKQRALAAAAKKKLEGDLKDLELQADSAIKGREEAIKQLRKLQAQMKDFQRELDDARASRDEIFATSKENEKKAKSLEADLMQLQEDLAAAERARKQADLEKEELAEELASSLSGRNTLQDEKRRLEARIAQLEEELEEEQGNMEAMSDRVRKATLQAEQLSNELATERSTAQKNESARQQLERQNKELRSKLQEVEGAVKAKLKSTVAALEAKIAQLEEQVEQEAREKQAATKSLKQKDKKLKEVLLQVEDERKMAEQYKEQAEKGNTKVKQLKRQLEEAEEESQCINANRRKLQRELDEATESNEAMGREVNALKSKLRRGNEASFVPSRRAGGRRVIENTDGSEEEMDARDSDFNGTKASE

The substance “α-smooth muscle actin (α-SMA) (from UniProt P62737 1-377) (natural protein)” registered a JNDR after noradrenaline, mesh pericytes (orders 3-4), blebbistatin vs. vehicle in assay [1] of 0.81. The same substance displayed an FRET efficiency in assay [2] above 0.8.
